According to patent US9327008B2, “Cell-permeant peptide-based inhibitor of kinases” (Purdue Research Foundation, priority 2008, dated 2016):
Non-standard residues stand in square brackets, D forms with d. No end group written: not given here.

Legend:
MK2 [1] = conditions: commercially available inhibitor; kinase not named at the place, used as inhibitor of MK2 (and PRAK); cited from earlier work
[2] = test system: IL-6 expression induced by TNF-α in mesothelial cells (CRL-9444); assay: IL-6 ELISA, mesothelial cells induced with TNF-α; format: cell-based
Description: A cell line of pleural mesothelial cells (CRL-9444) was purchased from American Type Culture Collection. Cells were maintained and seeded in Medium 199 with Earle's BSS and 0.75 mM L-glutamine (Mediatech, Inc., Manassas, Va.), 1.25 g/L sodium bicarbonate (Sigma, St. Louis, Mo.), 3.3 nM epidermal growth factor (MBL International, Woburn, Mass.), 40 nM hydrocortisone (Sigma), 870 nM insulin (MBL International), 20 mM HEPES (Sigma), trace elements mixture B (Mediatech, Inc.), 10% fetal bovine serum (FBS) (Hyclone, Waltham, Mass.) and 1% penicillin/streptomycin (Mediatech, Inc.). Prior to treating cells with therapeutic inhibitor peptides, cells were allowed to acclimate in serum-free media consisting of only Medium 199 with Earle's BSS. L-glutamine, sodium bicarbonate, HEPES, trace elements mixture B, and penicillin/streptomycin (concentrations and suppliers as above) for 24 hours prior to treatment with cytokines and/or inhibitor peptides. […]
Standards (from 2 ng/ml to zero) and samples were prepared in diluent, immediately added to each well in triplicate, and incubated at room temperature for at least 2 hours on a plate shaker adjusted to 300 rpm. […] Hoeschst 33342 nuclear stain (Invitrogen) was used to quantify cell number on the basis of DNA quantity. […]
Results are presented as means±standard deviation. […] Significant differences were analyzed with Tukey HSD post hoc comparisons. […]

[3] = test system: IL-1β induced IL-6 expression in mesothelial cells (CRL-9444); assay: IL-6 ELISA, mesothelial cells induced with IL-1β; format: cell-based; conditions: IL-1β 1 ng/ml; Rottlerin 1 μM
Description: A cell line of pleural mesothelial cells (CRL-9444) was purchased from American Type Culture Collection. Cells were maintained and seeded in Medium 199 with Earle's BSS and 0.75 mM L-glutamine (Mediatech, Inc., Manassas, Va.), 1.25 g/L sodium bicarbonate (Sigma, St. Louis, Mo.), 3.3 nM epidermal growth factor (MBL International, Woburn, Mass.), 40 nM hydrocortisone (Sigma), 870 nM insulin (MBL International), 20 mM HEPES (Sigma), trace elements mixture B (Mediatech, Inc.), 10% fetal bovine serum (FBS) (Hyclone, Waltham, Mass.) and 1% penicillin/streptomycin (Mediatech, Inc.). Prior to treating cells with therapeutic inhibitor peptides, cells were allowed to acclimate in serum-free media consisting of only Medium 199 with Earle's BSS. L-glutamine, sodium bicarbonate, HEPES, trace elements mixture B, and penicillin/streptomycin (concentrations and suppliers as above) for 24 hours prior to treatment with cytokines and/or inhibitor peptides. […] For all cell culture experiments, the cell-penetrating MK2 inhibitor peptide sequence [sequence] [SEQ ID NO: 11] was used.
IL-6 analysis was performed with a IL-6 ELISA kit (PeproTech, Inc., Rocky Hill, N.J.). Briefly, the plate was prepared as follows. The capture antibody (antigen-affinity purified goat anti-hIL-6+2.5 mg D-mannitol) was diluted with phosphate buffered saline (PBS) to a concentration of 1 μg/ml and added to the each well of the plate. The plate was sealed and incubated at room temperature overnight. The wells then were aspirated to remove liquid, and washed 4 times using wash buffer (300 μl per well of 0.05% Tween-20 in PBS). After the last wash, the plate was inverted to remove residual buffer, and blotted on a paper towel. Block buffer (300 μl per well of 1% BSA in PBS) was added, the plate incubated for at least 1 hour at room temperature, aspirated and washed 4 times.
Standards (from 2 ng/ml to zero) and samples were prepared in diluent, immediately added to each well in triplicate, and incubated at room temperature for at least 2 hours on a plate shaker adjusted to 300 rpm. […] Following the incubation, the plate was aspirated, washed 4 times, avidin-horse radish peroxidase (HRP) conjugate added ((5.5 μl:10994.5 μl diluent) (100 μl) to each well, incubated for 30 minutes at room temperature on a plate shaker adjusted to 300 rpm, aspirated, and washed 4 times. To each well then was added ABTS Liquid Substrate Solution (Sigma) (100 μl). The plate was incubated at room temperature for color development on a plate shaker adjusted to 300 rpm. Absorbance was measured at 405 nm and 650 nm (650 nm was the wavelength correction subtracted from each 405 nm measurement) using a Spectramax M5 Microplate Reader (Molecular Devices) every 5 minutes for 50 minutes. Hoeschst 33342 nuclear stain (Invitrogen) was used to quantify cell number on the basis of DNA quantity. All results were run in triplicate and normalized to cell number.
One-way ANOVA analyses were used to determine statistically significant increases or decreases in parameters of interest. Significant differences were analyzed with Tukey HSD post hoc comparisons. A significance level of α=0.05 was used in cytokine analyses.
Mesothelial cells were incubated with IL-1β (1 ng/ml) (to induce IL-6 expression) and/or different concentrations of therapeutic inhibitor peptide. The commercially available protein kinase inhibitor Rottlerin was introduced as an inhibitor of both MK2 and PRAK.

MK2 [4] = molecular target: MK2 (Homo sapiens, UniProt P49137); assay: Omnia fluorescence-based kinase activity assay for MAPKAP-K2 (reaction velocity); format: biochemical; set-up: purchased Invitrogen; conditions: for MK2 inhibition (in words): PTD peptide alone, 12.5-100 μM
MK2 (Homo sapiens, UniProt P49137), sequence (P49137 whole entry): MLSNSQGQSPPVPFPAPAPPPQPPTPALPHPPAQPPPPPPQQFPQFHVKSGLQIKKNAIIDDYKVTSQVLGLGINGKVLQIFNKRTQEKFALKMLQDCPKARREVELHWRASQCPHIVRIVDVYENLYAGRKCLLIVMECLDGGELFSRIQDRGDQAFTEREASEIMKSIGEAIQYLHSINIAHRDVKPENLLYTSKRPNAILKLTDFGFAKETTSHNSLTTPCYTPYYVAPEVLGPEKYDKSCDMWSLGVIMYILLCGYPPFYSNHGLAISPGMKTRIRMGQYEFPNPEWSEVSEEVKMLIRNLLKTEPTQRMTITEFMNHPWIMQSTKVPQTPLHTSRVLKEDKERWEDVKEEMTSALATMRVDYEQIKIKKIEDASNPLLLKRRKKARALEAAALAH
Description: The Omnia® Kinase Assay for MAPKAP-K2 kit (Invitrogen, Carlsbad, Calif.), was used to determine the reaction velocity for MK2 in the presence and absence of each of the peptides listed in Table 1. The kit contains a proprietary reaction buffer to which the following were added (final concentrations are given): 1 mM ATP, 0.2 mM DTT, 10 μM MAPKAP-K2 Sox-modified peptide substrate, 5 ng MK2, and the inhibitor peptide of interest (final volume of 50 μL). Human MK2 was purchased from Invitrogen. The reactions were performed at 30° C. in the wells of a low-protein-binding 96-well plate provided with the kit, and fluorescence readings (excitation=360 nm, emission=485 nm) were taken every 30 seconds for 20 minutes using a SpectraMax M5 Spectrophotometer (Molecular Devices). Reaction velocity was determined for each reaction well from the slope of a plot of relative fluorescence units versus time. Each inhibitor peptide was tested at least at four concentrations, 12.5, 25, 50 and […], in triplicate.
In Table 1, “a” represents that the results shown are for 100 μM for all peptides; “b” represents the percentage change in MK2 reaction velocity versus the unsubstituted peptide ([…]) [SEQ ID NO: 13] at a concentration of 100 μM; “c” represents the error reported as the standard deviation between three samples.

CaMKIV = CaMKIV (Homo sapiens, UniProt Q16566); conditions: AIP 1 μM; cited from earlier work
CaMKIV, sequence (Q16566 whole entry, species assumed): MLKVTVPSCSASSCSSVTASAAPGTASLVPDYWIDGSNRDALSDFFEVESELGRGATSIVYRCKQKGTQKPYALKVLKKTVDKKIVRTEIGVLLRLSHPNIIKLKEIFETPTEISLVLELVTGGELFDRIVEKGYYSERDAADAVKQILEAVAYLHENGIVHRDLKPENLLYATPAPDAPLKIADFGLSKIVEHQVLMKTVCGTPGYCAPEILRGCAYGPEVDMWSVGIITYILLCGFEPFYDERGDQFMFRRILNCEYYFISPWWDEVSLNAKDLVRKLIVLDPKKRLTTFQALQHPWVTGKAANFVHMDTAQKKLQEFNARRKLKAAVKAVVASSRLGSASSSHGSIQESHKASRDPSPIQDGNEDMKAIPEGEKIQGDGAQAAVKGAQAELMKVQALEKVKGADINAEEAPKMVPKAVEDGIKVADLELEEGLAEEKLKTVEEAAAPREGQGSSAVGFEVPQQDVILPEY

PKA = conditions: AIP 1 μM; cited from earlier work
PKC = conditions: AIP 1 μM; cited from earlier work
[5] = test system: Ca2+/calmodulin-dependent protein kinase II (CaMKII); conditions: cited from earlier work
[6] = 100 μM peptide, percentage change in MK2 reaction velocity versus unsubstituted KALNRQLGVAA at 100 μM, SD of three samples

Compound | percent change in MK2 reaction velocity versus unsubstituted peptide (MK2 [4]; [6]) | other results
CC(=O)c1c(O)c(C)c(O)c(Cc2c(O)c3c(c(C(=O)/C=C/c4ccccc4)c2O)OC(C)(C)C=C3)c1O [Rottlerin] | – | IC50 (MK2 [1]): 5000 nM; level of expression of IL-6 induced by TNF-α (FIG. 8) ([2]; TNF-α 1 ng/ml): ineffective; level of expression of IL-6 induced by TNF-α (FIG. 9) ([2]; TNF-α 10 ng/ml, initially, from 6-12 hours): minimal reduction; IL-1β induced IL-6 expression (FIG. 7) [3]: significantly reduced; time at which significant reduction of IL-1β induced IL-6 expression occurs [3]: 12 h
KALARQLGVAA [therapeutic domain, alanine substitution] | −61(2) % | –
KALNAQLGVAA [therapeutic domain, alanine substitution] | +258(14) % | –
KALNRQLGdVAA (KALNRQLG[dV]AA) [therapeutic domain, D-amino acid substitution] | +160(23) % | –
KALNRQdLGVAA (KALNRQ[dL]GVAA-NH2) [therapeutic domain, D-amino acid substitution] | +257(17) % | –
KAdLNRQLGVAA (KA[dL]NRQLGVAA-NH2) [therapeutic domain, D-amino acid substitution] | 46(7) % | –
KKALRRQEAVDAL [AIP, autocamtide-2 related inhibitory peptide] | – | CaMKIV activity (CaMKIV): not affected; PKA activity (PKA): not affected; PKC activity (PKC): not affected; CaMKII activity ([5]; AIP 1 μM): inhibited completely; IC50 [5]: 100 nM
WLRRIKA [cell penetrating peptide domain (non-functional)] | – | % of KALNRQLGVAA [SEQ ID NO: 13] Reaction Velocity (+VoSD) (MK2 [4]; [6]): 306%
YARAAARQARA [synthetic protein transduction domain peptide PTD-4, reference compound] | +149(13) % | MK2 inhibition (in words) (MK2 [4]): least affected
YGRKKRRQRRR [protein transduction domain peptide, reference compound] | +44(17) % | inhibition of MK2 activity (MK2 [4]; 25 μM peptide): 48%; inhibition of MK2 activity (MK2 [4]; 100 μM peptide): 61%

More lines, main results first:

percent change in MK2 reaction velocity versus unsubstituted peptide (MK2 [4]; [6]) | Compound | other results
+52(6) % | KAANRQLGVAA [therapeutic domain, alanine substitution] | –
+18(7) % | KALNRQAGVAA [therapeutic domain, alanine substitution] | –
−28(5) % | KALNRQLAVAA [therapeutic domain, alanine substitution] | –
+273(22) % | KALNRQLGAAA [therapeutic domain, alanine substitution] | –
0(5) % | KALNRQLGVA [therapeutic domain without C-terminal Ala] | –
+258(26) % | KALNRQLGVAA [unsubstituted therapeutic domain peptide] | inhibition of MK2 activity (MK2 [4]; 100 μM peptide): 73%
+176(5) % | KALNRdQLGVAA (KALNR[dQ]LGVAA-NH2) [therapeutic domain, D-amino acid substitution] | –
+206(7) % | KALNdRQLGVAA (KALN[dR]QLGVAA-NH2) [therapeutic domain, D-amino acid substitution] | –
−5(10) % | KALdNRQLGVAA (KAL[dN]RQLGVAA-NH2) [therapeutic domain, D-amino acid substitution] | –
−9(8) % | KKKALNRQLGVAA [therapeutic domain with two additional N-terminal Lys] | –
−83(4) % | WLRRIKAWLRRIKA [protein transduction domain peptide] | MK2 inhibition (in words) (MK2 [4]): potently inhibited
